1 molecule from patent publication US20210388087A1 (Chugai, published 2021) can be followed below.

For this test, the target named is human CD137 on HDLM-2 cells (human, UniProt Q07011 24-255). Nature of the test: cell-based or functional assay.
Sequence of human CD137 on HDLM-2 cells (Q07011 24-255): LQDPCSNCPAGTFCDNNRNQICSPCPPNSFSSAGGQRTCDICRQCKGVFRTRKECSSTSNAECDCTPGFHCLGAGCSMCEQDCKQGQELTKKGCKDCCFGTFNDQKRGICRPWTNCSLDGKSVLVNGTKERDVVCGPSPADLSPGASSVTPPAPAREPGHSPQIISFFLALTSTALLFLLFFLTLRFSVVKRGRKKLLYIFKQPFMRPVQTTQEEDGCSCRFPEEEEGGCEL

B1: GPC3 ERY22-dBBDu_189/L116 (bispecific antibody, human IgG1, kappa, L234A L235A, N297A)
heavy 1: DIVMTQSPLSLPVTPGEPASISCRSSQSLVHSNRNTYLHWYQQKPGQAPRLLIYKVSNRFSGVPDRFSGSGSGTDFTLKISRVEAEDVGVYYCSQNTHVPPTFGQGTKLEIKSSASTKGPSVFPLAPSSKSTSGGTAALGCLVKDYFPEPVTVSWNSGALTSGVHTFPAVLQSSGLYSLSSVVTVPSSSLGTQTYICNVNHKPSNTKVDKKVEPKSCDKTHTCPPCPAPEAAGGPSVFLFPPKPKDTLMISRTPEVTCVVVDVSHEDPEVKFNWYVDGVEVHNAKTKPREEQYASTYRVVSVLTVLHQDWLNGKEYKCKVSNKALPAPIEKTISKAKGQPREPQVCTLPPSRDELTKNQVSLWCLVKGFYPSDIAVEWESNGQPENNYKTTPPVLDSDGSFFLYSKLTVDKSRWQQGNVFSCSVMHEALHNHYTQKSLSLSPHHHHHHHH
light 1: QVQLVQSGAEVKKPGASVKVSCKASGYTFTDYEMHWIRQPPGQGLEWIGAIDPKTGDTAYSQKFKGRVTLTADKSTSTAYMELSSLTSEDTAVYYCTRFYSYTYWGQGTLVTVSSASVAAPSVFIFPPSDEQLKSGTASVVCLLNNFYPREAKVQWKVDNALQSGNSQESVTEQDSKDSTYSLSSTLTLSKADYEKHKVYACEVTHQGLSSPVTKSFNRGEC
heavy 2: QVQLVESGGGLVQPGRSLRLSCAASGFTFSNAWMHWVRQAPGKGLEWIAQIKDRSNQYATYYAPSVKGRFTISRDDSKNSIYLQMNSLKTEDTAVYYCHYVHYAQASSLLPSFGVDAWGQGTTVTVSSASTKGPSVFPLAPSSKSTSGGTAALGCLVKDYFPEPVTVSWNSGALTSGVHTFPAVLQSSGLYSLSSVVTVPSSSLGTQTYICNVNHKPSNTKVDKKVEPKSCDKTHTCPPCPAPEAAGGPSVFLFPPKPKDTLMISRTPEVTCVVVDVSHEDPEVKFNWYVDGVEVHNAKTKPREEQYASTYRVVSVLTVLHQDWLNGKEYKCKVSNKALPAPIEKTISKAKGQPREPQVYTLPPSRCELTKNQVSLSCAVKGFYPSDIAVEWESNGQPENNYKTTPPVLDSDGSFFLVSKLTVDKSRWQQGNVFSCSVMHEALHNHYTQKSLSLSPDYKDDDDK
light 2: DIVMTQSPLSLPVTPGEPASISCSSSQELVHANRQIYLHWYQQKPGQAPRLLIYKVANRFPGVPDRFSGSGSGTDFTLKISRVEAEDVGVYYCAQGTQVPFTFGQGTKLEIKRTVAAPSVFIFPPSDEQLKSGTASVVCLLNNFYPREAKVQWKVDNALQSGNSQESVTEQDSKDSTYSLSSTLTLSKADYEKHKVYACEVTHQGLSSPVTKSFNRGEC
Consider B1, for which the “Agonistic activity compared to B, antibody 6 ug/mL” value came to 8.28%; the “Agonistic activity compared to B, antibody 30 ug/mL” value is 19.2%; the “Agonistic activity compared to Ctrl, antibody 6 ug/mL” value stood at 28.7%; the “Agonistic activity compared to Ctrl, antibody 30 ug/mL” value was 72.9%. The “hIL-6 (pg/mL), antibody 6 ug/mL” value stood at 1300 pg/mL and the “hIL-6 (pg/mL), antibody 30 ug/mL” value was found to be 1570 pg/mL.
